Reference: publication PMC10080726 (Molecular cell, 2023)
Blank lines part the entries; values can stand above or below the molecule they belong to. No end group written: not given here.

Assays:
[1] = target: KLHDC3-EloBC complex (full-length KLHDC3, EloB, EloC) (UniProt Q9BQ90)
KLHDC2 SBD = target: T1, KLHDC2 SBD (Homo sapiens, UniProt Q9Y2U9); assay: SPR binding to immobilised KLHDC2 SBD; details: for Kd: 10xHis-KLHDC2 SBD, pH 7.4, 20°C, triplicate, 1-site model, substrates (Figure S1C)
T1 sequence (Q9Y2U9 15-361): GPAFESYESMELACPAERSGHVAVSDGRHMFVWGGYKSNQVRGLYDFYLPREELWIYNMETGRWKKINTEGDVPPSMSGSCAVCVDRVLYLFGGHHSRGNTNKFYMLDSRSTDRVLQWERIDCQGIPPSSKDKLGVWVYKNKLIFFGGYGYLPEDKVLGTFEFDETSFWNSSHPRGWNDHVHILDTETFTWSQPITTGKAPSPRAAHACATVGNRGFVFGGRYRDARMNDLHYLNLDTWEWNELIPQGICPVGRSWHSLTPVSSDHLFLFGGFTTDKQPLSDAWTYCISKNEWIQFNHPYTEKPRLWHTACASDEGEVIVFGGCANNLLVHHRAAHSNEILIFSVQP

KLHDC2-EloBC = assay: Native gel electrophoresis, substrate; format: binding, human
[2] = target: 10xHis-KLHDC2 SBD (residues 15-361) (human) (UniProt Q9Y2U9); assay: SPR
neddylated CRL2^KLHDC2 = assay: Pulse-chase ubiquitylation of substrates or KLHDC2; format: biochemical, human
CUL2-RBX1 = CUL2-RBX1 neddylation pulse-chase; format: biochemical, human; details: tetramer supplied with substrate, without CAND1
[3] = target: KLHDC2-EloBC substrate receptor complex (full-length WT KLHDC2, EloB, EloC) (UniProt Q9Y2U9); assay: SEC
[4] = target: KLHDC2-EloBC substrate receptor complex (full-length WT KLHDC2, EloB, EloC) (UniProt Q9Y2U9); assay: AUC
[5] = target: T2, 10xHis-KLHDC2 SBD (residues 15-361) (human, UniProt Q9Y2U9 15-361); assay: SPR
T2 sequence (looked up): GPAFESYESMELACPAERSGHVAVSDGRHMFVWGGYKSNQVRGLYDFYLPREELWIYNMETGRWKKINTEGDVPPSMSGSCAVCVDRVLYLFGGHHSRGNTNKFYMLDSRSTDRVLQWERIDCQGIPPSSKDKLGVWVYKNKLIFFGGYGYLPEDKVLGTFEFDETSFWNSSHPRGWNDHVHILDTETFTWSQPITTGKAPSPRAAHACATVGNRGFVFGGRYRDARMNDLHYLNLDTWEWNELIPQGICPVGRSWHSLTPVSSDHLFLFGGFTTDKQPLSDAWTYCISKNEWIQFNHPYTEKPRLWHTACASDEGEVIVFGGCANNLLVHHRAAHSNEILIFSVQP

CRL2^KLHDC2 = assay: Pre-steady state rapid quench flow ubiquitylation; format: biochemical, human; details: KLHDC2 -KK, UBE2R2, one-hour equilibration of substrate with E3, triplicate
[6] = target: T3, KLHDC2 substrate-binding domain (SBD), residues 15-361 (human, UniProt Q9Y2U9 15-361); assay: crystal structure
T3 sequence (looked up): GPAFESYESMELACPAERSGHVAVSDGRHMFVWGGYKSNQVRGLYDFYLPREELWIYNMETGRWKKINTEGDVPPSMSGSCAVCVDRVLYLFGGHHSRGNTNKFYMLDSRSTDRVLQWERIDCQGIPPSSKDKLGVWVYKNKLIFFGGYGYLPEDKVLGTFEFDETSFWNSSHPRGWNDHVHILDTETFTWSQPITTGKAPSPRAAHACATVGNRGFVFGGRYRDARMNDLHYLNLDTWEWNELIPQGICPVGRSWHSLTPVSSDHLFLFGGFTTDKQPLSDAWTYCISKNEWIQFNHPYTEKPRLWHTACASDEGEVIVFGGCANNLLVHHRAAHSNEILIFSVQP

crystal structure = target: the molecule itself; assay: crystal structure
CUL2 in 293T cells = assay: FLAG immunoprecipitation of KLHDC2, associated CUL2 neddylation state; format: cell-based, human; details: FLAG-KLHDC2, no treatment
KLHDC2 in U2OS cells [7] = assay: K48-ubiquitylation of FLAG-KLHDC2 in U2OS cells; format: cell-based, human; details: Bortezomib 1 μM, five hours, K48 antibody
NEDD8 in U2OS cells = assay: Steady-state NEDD8 levels in U2OS cells; details: ectopic expression in KLHDC2 KO U2OS
KLHDC2 in U2OS cells [8] = assay: Steady-state KLHDC2 protein levels in U2OS cells
[9] = test system: USP1 N-fragment in U2OS cells; assay: Steady-state USP1 N-fragment levels in U2OS cells; details: exogenous rescue in KLHDC2 KO U2OS, n=3 technical replicates

Molecule: CUL2-RBX1: CUL2-RBX1 complex
required pre-incubation time for KLHDC2-FAM-SELK complex formation (KLHDC2-EloBC; with CUL2-RBX1): < 3 h

Molecule: KLHDC2-EloBC: full-length KLHDC2-EloBC substrate receptor complex, tetrameric
auto-ubiquitylation of KLHDC2 (neddylated CRL2^KLHDC2; UB~UBCH5B, WT or C-degron mutants, with or without SELK): subject to auto-ubiquitylation | FAM-SELK binding (in words) (KLHDC2-EloBC; native gel, 2.5 μM KLHDC2, pH 7.5): a single band appeared | rate of CUL2-RBX1 neddylation (in words) (CUL2-RBX1): greatest

Molecule: KLHDC2-EloBC substrate receptor complex (full-length WT KLHDC2, EloB, EloC) (from UniProt Q9Y2U9 1-406; Q15370 1-104; Q15369 17-112)
Kd [3]: 0.18 to 0.26 nM | Kd [4]: 0.15 nM

Molecule: GFP-RIC8B: C-terminal 23 amino-acids of RIC8B appended to the C-terminus of GFP ({GFP}-TITPLEEALNQYSVIEETSSDTD)
Kd (KLHDC2 SBD): 460 nM

B2: FAM-USP1: fluorescein-labeled USP1 fragment (protein)
chain: GHYTASVKVTDLNSLELDKGNFVVDQMCEIGKPEPLNEEEARGVVENYNDEEVSIRVGGNTQPSKVLNKKNVEAIGLLGG
modifications: fluorescein on the amino-terminus (sortase-mediated ligation of FAM-(PEG)5-LPETGG peptide); left off: GST, N-terminal, cleaved
complex formation with KLHDC2-EloBC (in words) (KLHDC2-EloBC; 20-fold molar excess of ligand, 4-hour pre-incubation): only minimal interaction

B5: KLHDC2, full length (the KLHDC2 chain of the KLHDC2-EloBC crystal structure) (natural protein, human, UniProt Q9Y2U9 1-406, looked up)
chain: MADGNEDLRADDLPGPAFESYESMELACPAERSGHVAVSDGRHMFVWGGYKSNQVRGLYDFYLPREELWIYNMETGRWKKINTEGDVPPSMSGSCAVCVDRVLYLFGGHHSRGNTNKFYMLDSRSTDRVLQWERIDCQGIPPSSKDKLGVWVYKNKLIFFGGYGYLPEDKVLGTFEFDETSFWNSSHPRGWNDHVHILDTETFTWSQPITTGKAPSPRAAHACATVGNRGFVFGGRYRDARMNDLHYLNLDTWEWNELIPQGICPVGRSWHSLTPVSSDHLFLFGGFTTDKQPLSDAWTYCISKNEWIQFNHPYTEKPRLWHTACASDEGEVIVFGGCANNLLVHHRAAHSNEILIFSVQPKSLVRLSLEAVICFKEMLANSWNCLPKHLLHSVNQRFGSNNTSGS
binding result (crystal structure): binds

B6: WT KLHDC2: FLAG-tagged WT KLHDC2 expressed in cells; KLHDC2 in CRL2^KLHDC2 (protein)
chain: MADGNEDLRADDLPGPAFESYESMELACPAERSGHVAVSDGRHMFVWGGYKSNQVRGLYDFYLPREELWIYNMETGRWKKINTEGDVPPSMSGSCAVCVDRVLYLFGGHHSRGNTNKFYMLDSRSTDRVLQWERIDCQGIPPSSKDKLGVWVYKNKLIFFGGYGYLPEDKVLGTFEFDETSFWNSSHPRGWNDHVHILDTETFTWSQPITTGKAPSPRAAHACATVGNRGFVFGGRYRDARMNDLHYLNLDTWEWNELIPQGICPVGRSWHSLTPVSSDHLFLFGGFTTDKQPLSDAWTYCISKNEWIQFNHPYTEKPRLWHTACASDEGEVIVFGGCANNLLVHHRAAHSNEILIFSVQPKSLVRLSLEAVICFKEMLANSWNCLPKHLLHSVNQRFGSNNTSGS
modifications: left off: FLAG, N-terminal, kept
auto-ubiquitylation of KLHDC2 (neddylated CRL2^KLHDC2; no substrate, UB~UBE2R2): rapidly ubiquitylated | co-precipitated CUL2 neddylation state (in words) (CUL2 in 293T cells): co-precipitated a mixture of unmodified and neddylated CUL2 | ubiquitylation of KLHDC2 (in words) (KLHDC2 in U2OS cells [7]): more ubiquitylated than their monomeric counterparts | NEDD8 levels (in words) (NEDD8 in U2OS cells): reduced the levels of unconjugated NEDD8 | exogenous expression relative to endogenous KLHDC2 (KLHDC2 in U2OS cells [8]; U2OS): roughly 10 -fold | KLHDC2 protein level (in words) (KLHDC2 in U2OS cells [8]; stable FLAG-KLHDC2 in KLHDC2 KO U2OS): significantly lower than that of CΔ6 and -KK monomers | reduction of USP1 N-fragment levels [9]: ~ 4 fold

Second part, led by results:

stoichiometry N [1]: 4
Molecule: KLHDC3-EloBC complex (full-length KLHDC3, EloB, EloC) (from UniProt Q9BQ90 1-382; Q15370 1-104; Q15369 17-112)

affinity lower than physiological substrates (KLHDC2 SBD; vs peptides from physiological substrates USP1 and GFP-RIC8B): 3–5 fold
Molecule: NQRFGSNNTSGS-OH [WT KLHDC2-derived peptide]

Kd [2]: 1400 nM
Molecule: WT KLHDC2-derived peptide (C-terminus of KLHDC2) used in SPR

Kd [5]: 264 nM
B1: USP1 fragment (residues 592-671) (domain or fragment, UniProt O94782 592-671, looked up)
chain: GHYTASVKVTDLNSLELDKGNFVVDQMCEIGKPEPLNEEEARGVVENYNDEEVSIRVGGNTQPSKVLNKKNVEAIGLLGG

Kd (KLHDC2 SBD): 260 nM
B3: USP1: USP1 fragment, residues 592–671 (protein)
chain: GHYTASVKVTDLNSLELDKGNFVVDQMCEIGKPEPLNEEEARGVVENYNDEEVSIRVGGNTQPSKVLNKKNVEAIGLLGG
modifications: left off: GST, N-terminal, cleaved
pre-incubation required for maximal ubiquitylation (in words) (neddylated CRL2^KLHDC2; KLHDC2 -KK): required no pre-incubation | *UB transfer to substrate (in words) (neddylated CRL2^KLHDC2; UB~UBE2R2, neddylated CRL2^KLHDC2 (WT), 0.6 μM substrate, pH 7.5, n=3): preferentially promotes *UB ligation to SELK or USP1 | rate of substrate modification kobs (CRL2^KLHDC2): 0.21 s⁻¹

binding result [6]: binds
B4: 12mer peptide derived from the C-terminus of KLHDC2 (peptide, UniProt Q9Y2U9 395-406, looked up)
peptide: NQRFGSNNTSGS
